From US20230143604A1, “QW DOSING OF GIP RECEPTOR AGONIST PEPTIDE COMPOUNDS AND USES THEREOF” (TAKEDA PHARMACEUTICAL COMPANY LIMITED, priority 2020, published 2023)
Starred links: 1 amine or outer side, 2 acyl side, 3 side chain; linkers in the order of their positions; H or OH if unused. Non-standard residues stand in square brackets, D forms with d. Groups on a side chain read outwards from the residue. No end group written: not given here. *: point of attachment. C18 diacid = O=C(O)CCCCCCCCCCCCCCCCC(=O)*; C17 diacid = O=C(O)CCCCCCCCCCCCCCCC(=O)*; γGlu = O=C(O)[C@H](CCC(=O)[*:2])N[*:1]; NMeY = CN[C@@H](Cc1ccc(O)cc1)C(=O)O; AEEA = NCCOCCOCC(=O)O; Aib = CC(C)(N)C(=O)O

What was measured:
[1] = Pharmacokinetics in dog after IV and SC dosing; conditions: in vivo
Method: Pharmacokinetic (PK) were conducted in dog in order to determine the half-life after IV and SC dosing. The peptide was dissolved in 10% DMSO/0.09% Polysorbate/PBS pH 7.4 to a concentration of 3 nmol/mL and the animal were dose with a volume of 1 mL/kg SC or IV. Blood sample were collected at 0, 0.033, 0.083, 0.25, 0.5, 1, 2, 4, 6, 8, 12, 24, 48, 72, 96, 120, 168, 336 hours for IV dosing and 0.25, 0.5, 1, 2, 4, 6, 8, 12, 24, 48, 72, 96, 120, 168, 336 for SC dosing, EDTA-K2 was used as anticoagulant. The plasma concentration of the peptide was measured using LCMS. Allometric scaling of lipidated peptide pharmacokinetics including T1/2 and MRT is known in the art for rodent to dog and mini pig and to humans. […] See for example, Discovery and Development of Liraglutide and Semaglutide. Knudsen, L. B.; Lau, J. Frontiers in Endocrinology, 2019, vol 10, Article 155.

physchem = assay: physchem
In short: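 3 mg of peptide treated with 100 μL portions of 200 mM phosphate buffer pH 7.4, sonicating/vortexing up to 1 min, with further buffer added until fully dissolved. Solubility then quantified by HPLC.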

[2] = Human plasma protein binding (PPB); assay type: in vitro ADME
In short: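 Peptides spiked at 1000 nmol/L into pooled human K2-EDTA plasma adjusted to pH 7.4, incubated 30 min at 37 °C, then ultracentrifuged at ~450,000 g, 4 °C for 3 h. Fu derived from LC-MS/MS (MRM) peak area ratios, supernatant versus plasma.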

[3] = Dog plasma protein binding (PPB); assay type: in vitro ADME; conditions: pH 7.4; fraction unbound; dog serum; read-out: Dog PPB (FUplasma)
In short: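 Dog serum replaced human serum, with the protocol and analysis otherwise the same as for human plasma protein binding. Values are reported as fraction unbound (Fu,plasma) expressed as a percentage.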

human GLP-1R = target: T1, human GLP-1R (Homo sapiens, UniProt P43220); assay: Human GLP1R agonist activity, intracellular cAMP accumulation; assay type: cell-based; conditions: HEK-293T cells overexpressing human GLP-1R, 1 hr, read-out: Human GLP1R cAMP EC50, HEK293T
T1 construct: HEK-293T cells overexpressing full-length human GLP-1R; FLAG (N); host or cells: HEK-293T
T1 sequence (P43220 24-463): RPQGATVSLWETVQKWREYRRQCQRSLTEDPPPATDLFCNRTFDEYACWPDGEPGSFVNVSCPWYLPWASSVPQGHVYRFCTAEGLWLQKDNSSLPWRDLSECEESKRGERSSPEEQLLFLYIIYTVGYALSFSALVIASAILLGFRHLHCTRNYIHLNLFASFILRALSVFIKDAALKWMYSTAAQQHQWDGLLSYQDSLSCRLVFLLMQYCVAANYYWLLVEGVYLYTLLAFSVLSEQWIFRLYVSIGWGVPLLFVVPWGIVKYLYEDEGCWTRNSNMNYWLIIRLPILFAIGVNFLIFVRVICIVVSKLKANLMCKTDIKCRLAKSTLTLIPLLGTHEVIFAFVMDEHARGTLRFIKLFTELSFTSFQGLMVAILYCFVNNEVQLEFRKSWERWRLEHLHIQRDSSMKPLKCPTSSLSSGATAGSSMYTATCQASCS
In short: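 Frozen assay-ready cells washed and resuspended at 4×10^5 cells/mL in Krebs Ringer buffer, then incubated with compound 1 hr at room temperature in the dark. cAMP read by HTRF (anti-cAMP antibody, d2-cAMP tracer). Normalised to 1 nm GLP-1 (100%) and DMSO (0%).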

[4] = target: full-length human GLP-1R with an N-terminal FLAG tag (human, UniProt P43220 24-463); assay: cell-based or functional assay
[5] = target: T2, full-length human GIPR with an N-terminal FLAG tag (human, UniProt P48546 22-466); assay: cell-based or functional assay
T2 sequence (looked up): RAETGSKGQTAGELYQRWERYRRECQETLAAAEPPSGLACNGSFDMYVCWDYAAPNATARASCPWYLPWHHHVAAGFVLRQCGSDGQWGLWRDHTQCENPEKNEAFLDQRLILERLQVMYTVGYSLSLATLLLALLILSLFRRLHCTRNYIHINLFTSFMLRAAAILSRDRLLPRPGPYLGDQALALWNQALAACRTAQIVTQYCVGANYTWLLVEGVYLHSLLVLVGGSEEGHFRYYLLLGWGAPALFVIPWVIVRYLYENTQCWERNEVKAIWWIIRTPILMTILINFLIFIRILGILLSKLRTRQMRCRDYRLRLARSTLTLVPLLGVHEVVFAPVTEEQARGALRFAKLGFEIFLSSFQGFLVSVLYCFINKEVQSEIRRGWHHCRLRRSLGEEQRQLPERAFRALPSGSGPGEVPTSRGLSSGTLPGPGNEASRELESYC

human plasma proteins = assay: plasma protein binding, ultracentrifugation, LC-MS/MS
dog plasma proteins = assay: as above

Molecule | Human GLP1R cAMP EC50, HEK293T [4] [nM] | Human GIPR cAMP EC50, HEK293T [5] [nM] | Human PPB (FUplasma), fraction unbound in plasma (fraction unbound) (human plasma proteins) | Dog PPB (FUplasma), fraction unbound in plasma (fraction unbound) (dog plasma proteins) | other results
CC[C@H](C)[C@H](NC(=O)[C@H](Cc1ccccc1)NC(=O)[C@@H](NC(=O)CNC(=O)[C@H](CCC(=O)O)NC(=O)C(C)(C)NC(=O)[C@H](Cc1ccc(O)cc1)NC)[C@@H](C)O)C(=O)N[C@@H](CO)C(=O)N[C@@H](CC(=O)O)C(=O)N[C@@H](Cc1ccc(O)cc1)C(=O)N[C@@H](CO)C(=O)N[C@H](C(=O)NC(C)(C)C(=O)N[C@@H](CCCCNC(=O)CNC(=O)CNC(=O)CNC(=O)CNC(=O)CNC(=O)CCCCCCCCCCCCCCCCC(=O)O)C(=O)N[C@@H](CC(=O)O)C(=O)N[C@@H](CCCNC(=N)N)C(=O)NC(C)(C)C(=O)N[C@@H](C)C(=O)N[C@@H](CCC(N)=O)C(=O)NC(C)(C)C(=O)N[C@@H](CC(=O)O)C(=O)N[C@@H](Cc1ccccc1)C(=O)N[C@H](C(=O)N[C@@H](CC(N)=O)C(=O)N[C@@H](Cc1c[nH]c2ccccc12)C(=O)N[C@@H](CC(C)C)C(=O)N[C@@H](CC(C)C)C(=O)N[C@@H](C)C(=O)N[C@@H](CCC(N)=O)C(=O)N[C@@H](CCCNC(=N)N)C(=O)NCC(=O)O)C(C)C)[C@@H](C)CC [Compound 294, Me-Y-Aib-E-G-T-F-I-S-D-Y-S-I-Aib-Km-D-R-Aib-A-Q-Aib-D-F-V-N-W-L-L-A-Q-R-G-OH] | – | – | – | – | half-life ([1]; IV 3 nmol/kg, read-out: IV T½ (converted)): 59 h; MRT last ([1]; SC 3 nmol/kg, read-out: SC MRT 0-last): 97 h; solubility (physchem; pH 7.4): ≥ 15 mg/mL; solubility (physchem; pH 7.4, aqueous buffer): ≥ 30 mg/mL; fraction unbound ([2]; both sexes, pH 7.4, fraction unbound, human plasma, 1000 nmol/L peptide, ultracentrifugation, read-out: Human PPB (FUplasma)): < 0.002; free unbound peptide in human plasma (in words) ([2]; judged for once per week (QW) dosing): optimum free unbound peptide; fraction unbound [3]: 0.0111; EC50 (human GLP-1R): 38.9 nM
[NMeY][Aib]EGTFISDYSI[Aib]LDR[Aib]AQ[Aib]K([AEEA-AEEA-γGlu-γGlu-C17 diacid])FVNWLLAQRPSSGAPPPS-NH2 [Compound No. 13] | 49 | 0.0004 | < 0.002 | < 0.002 | –
[NMeY][Aib]EGTFISDYSIALDR[Aib]AQ[Aib]K([AEEA-AEEA-γGlu-γGlu-C18 diacid])FVNWLLAQKG-OH [Compound No. 41] | – | – | < 0.002 | 0.0007 | –
[NMeY][Aib]EGTFISDYSI[Aib]LDR[Aib]AQ[Aib]NFVNWLLAQK([AEEA-AEEA-γGlu-γGlu-C17 diacid])PSSGAPPPS-NH2 [Compound No. 16] | 35.1 | 0.0004 | < 0.0012 | < 0.00116 | –
[NMeY][Aib]EGTFISDYSI[Aib]LDR[Aib]AQ[Aib]K([2OEGgEgE-C18 diacid])FVNWLLAQRG-OH [Compound No. 72] | 43.2 | 0.0005 | 0.0036 | 0.0062 | –
[NMeY][Aib]EGTFISDYSI[Aib]LDRK([AEEA-AEEA-γGlu-γGlu-C17 diacid])AQ[Aib]NFVNWLLAQRPSSGAPPPS-NH2 [Compound No. 15] | 35.9 | 0.0003 | 0.0017 | 0.0021 | –
[NMeY][Aib]EGTFISDYSIALDR[Aib]AQ[Aib]K(2OEGgEgE‑C20 diacid)FVNWLLAQKG-OH [Compound No. 39] | 13.2 | 0.0017 | 0.0112 | 0.0015 | –
[NMeY][Aib]EGTFISDYSIALDR[Aib]HQ[Aib]NFVNWLLAK([AEEA-AEEA-γGlu-γGlu-C18 diacid])R-NH2 [Compound No. 19] | – | – | 0.0011 | 0.0005 | –
[NMeY][Aib]EGTFISDYSIALDR[Aib]AQ[Aib]K([2OEGgEgE-C17 diacid])FVNWLLAQR-NH2 [Compound No. 8] | 41.4 | 0.0003 | 0.0009 | 0.0016 | –
[NMeY][Aib]EGTFISDYSIALDR[Aib]AQ[Aib]K([AEEA-AEEA-γGlu-γGlu-C18 diacid])FVNWLLAQRG-OH [Compound No. 37] | 44.7 | 0.0005 | 0.001 | 0.0012 | –
[NMeY][Aib]EGTFISDYSIALDR[Aib]K([AEEA-AEEA-γGlu-γGlu-C17 diacid])Q[Aib]NFVNWLLAQSPSSGAPPPS-NH2 [Compound No. 11] | 1000 | 0.0003 | 0.0038 | < 0.0024 | –
[NMeY][Aib]EGTFISDYSIALDR[Aib]AQ[Aib]K([AEEA-AEEA-γGlu-γGlu-C17 diacid])FVNWLLAQRG-OH [Compound No. 36] | 87.1 | 0.0007 | < 0.002 | 0.0034 | –
[NMeY][Aib]EGTFISDYSI[Aib]LDR[Aib]AQ[Aib]NFVNWLLAQK([AEEA-AEEA-γGlu-γGlu-C18 diacid])PSSGAPPPS-NH2 [Compound No. 27] | 87.1 | 0.0004 | 0.0013 | < 0.002 | –
